{
  "source": "the DeepSol protein solubility set",
  "data": [
    {"test": "soluble on expression in E. coli; label from the status in PepcDB or PDB records", "values": [
      {"sequence": "MSLNAEEKKGLQRAIEEITEIAKGFGLDFYPMRYEICPAEIIYTFGAYGMPTRFSHWSFGKQFHKMKLHYDLGLSKIYELVINSDPCYAFLLDSNSLIQNKLIVAHVLAHCDFFKNNCRFQNTKRDMVESMAATAERIKHYEQVHGIKEVESFLDAILSIQEHIDPSLVRPKLQWSVDDEEEEIEEAATPYDDLWSLDEKKPKKQVKKSKKPFPPRPEKDILLFIEEHSRELEPWQRDILTMMREEMLYFWPQLETKIMNEGWASYWHQRIIRELDLTSDEAIEFAKLNAGVVQPSKTGINPYYLGLKIFEDIEKRYNNPTEEMKKMGVQPDSGREKMFEVREIESDISFIRNYLTKELVMREDLYLFQKQGRDYKIIDKQWKSVRDQLVSMRVNGGFPYLTVNDGDYMKNNELYIKHWYEGIELDLKYLEKVLPYLFQLWGRSVHIESVLEDKEVMFSYDGKGVHRRYLEGHHHHHH", "soluble on expression in E. coli": "not soluble"},
      {"sequence": "MSLPILTIREVCNINHWGIGYYDVDDSGEIIVRPNPSQHNQTVSLQKLTEAVQQKHQARLPVLFCFPQILEHRLRDINRAFQTAREECGYKGGYCLVYPIKVNQHRRVIESLMSSGQPHGLEAGSKAELMAVLAHAGNRQTLIVCNGYKDREYIRFALMGEKLGHQVYLVIEKLSEIQMVLEEAEKLGIKPRLGVRARLASQGSGKWQSSGGEKSKFGLSASQVLQLVDILKQKNRLDCLQLLHFHLGSQLGNIRDVATGVHESARFYVELHKLGVNIRCFDVGGGLGVDYEGNRTQSDCSVNYSLNEYAATVVWGISQACLEHGLPHPTIITESGRGITAHHAVLVANVIGVERYKPRRLDAPSPEAPRVLHSMWETWTDISASREKRSLRSWIHEGQFDLADVHNQYNVGLLSLAQRAWAEQLYLNICHEVGELFNEKHRSHRTIIDELQERFADKLYVNFSLFQSLPDAWGIDQLFPVCPITGLNEPIARRAVLLDITCDSDGTIDHYIDGDGIAGTMPMPDYPEEEPPLLGFFMVGAYQEILGNMHNLFGDTATADVVVGEDGQFTVIDYDEGNTVADMLEYVYQDPKELMKRYREQIEHSDLPASQAMSFLKELEAGLNGYTYLEDEEGHHHHHH", "soluble on expression in E. coli": "soluble"},
      {"sequence": "TEERLKEIEAKYDEIAKDWPKKVKHVLHEEHELELTRVQVYTCDKCEEEGTIWSYHCDECDFDLHAKCALNEDTKE", "soluble on expression in E. coli": "soluble"},
      {"sequence": "MGSDKIHHHHHHMLTTGTTRITGDRKLNDLIGHLIDPQLVEVEAAPQIKAMATSRLNFKMQKQTQTNWCWAAVSASVGNFYRTGSWTQCGVASASLDRNCCNQPGPCNIYGYLDSALRITRSYNGMNRGSLQMSAIRNQIKKGRPIGLRCAWYGGGAHFLVIYGTDGDYLLIADSIYGYSTRALNSFPRLYKSGGNWTDTYFTVKK", "soluble on expression in E. coli": "not soluble"},
      {"sequence": "MENIVNRTYTRIGQLLKQDISQGIYSIGDKLPTEREISEKFGVSRTIVREAMVMLEVEKLVEVKKGSGVYVVRTPESIHMEHSDLPDVGPFELLQARQLLESSIAEFAALQATKKDILNLKQILNREKELLTQNQDDYSADKDFHLALAEITQNDVLVKLQEQLWQYRFNSAMWAQLHSRILQNDYHHLWIEDHQTILSAIQKKNANEARKAMWQHLENVKVKLFELSDVEDPHFDGYLFNTNPVVVGI", "soluble on expression in E. coli": "not soluble"},
      {"sequence": "MTVSDHPQTVSQPDPESESRPSKTRLKQEMHALQALGERLVELEPARIAELDLPEKLAEALLEARKITSHGARRRHLQFIGKLMRAVDPLPVQEKLDAWQHTGMRHTAWLHQLERWRDRLISDETAVTEFVQTYPHTDVRQLRTLLRNIEKEKLAGKPPHNFRALFQLLRQIIPEIPG", "soluble on expression in E. coli": "not soluble"},
      {"sequence": "SLQLHFTNDALPDNVSTDFQNLNKFSEQQFVSLTDILYQFLLEPKESERFLHQLTEFAGENGMSAGPLRALMKSILLLPHGALKRNLTAEQIKLDLLSLGLNEDKASHFSDQWRVHYPVLARLAVGQTLMVNQLVDMEWKFGVTVGTSELQKTGNIFLQLKLVIRKGNMTENVYMELTLPQFYSFLHEMERAKASMDCFS", "soluble on expression in E. coli": "soluble"},
      {"sequence": "STYEYKRELREGARGKWINLRQHLNSGTRLEKELIKVDRQIDKKAAEIKEIEDLLFKIEQYKAENNIR", "soluble on expression in E. coli": "not soluble"},
      {"sequence": "MNETIRRILAESGTKTSKIRKLLLIGLSHREIADLLTRGNRGFVWNVYKRMRDEGLLPASQTATVLRPEPDYTFNRCFGVEIEAYNCPRQTLTDALREAGIPVEIGSRNAETNSNWKLTTDGSLEGSHTFELVSPILCGEQGLEVLERVCWVLDAYNVKINSSCGVHVHFNAGDFNLTTWQNLILSYKHAETEIDKFMPASRRGNRNTYCRSLRGFSDEDIRSAESIESLQRLFGSRYMKVNLEAYSRHRTVEFRQHSGTINFTKIENWVRFLGRMIIFASTASLPAGIRLEDFPFLGEKQKLYYKLRTKKLMV", "soluble on expression in E. coli": "not soluble"},
      {"sequence": "MMLKQAAKKALGLTSRQSTPWSVGILRTYHENVIDHYDNPRNVGSFDKNDPNVGTGLVGAPACGDVMKLQIKVDEKTGQIVDARFKTFGCGSAIASSSVATEWVKGKAMEDVLTIKNTEIAKHLSLPPVKLHCSMLAEDAIKAAVKDYKEKRVKTNGAAAAGETTQA", "soluble on expression in E. coli": "not soluble"},
      {"sequence": "GMLTENPVLQAIRQRRSIRRYTDEAVSDEAVRLILEAGIWAPSGLNNQPCRFLVIRADDPRCDILAAHTRYGHIVRGAKVIILVFLDREAMYNEVKDHQAAGAAVQNMLLAAHALQLGAVWLGEIINQAATLLPALALDPARLSFEAAIAAGHPAQNGSSSRRPLAELLLEEPFPQPE", "soluble on expression in E. coli": "soluble"},
      {"sequence": "MAHHHHHHMIKLGNFAWQLLTRADGSNLGGVLRGSRKVCSLSVARLSKHPYKPKTKEVIHPHVTPPEFLSPSDCFEAKTDELQQYLPSNYYRTKWVESLRAGEHLGSDYPWNLLPHWKFWKKRKYNVVYGEVPWFVSKVKGVSYYQRLNVWMVQWVEEGVHRIRRFRCAFGVLQAKLAAEQFRRNLEESGRVDNRKSERQLRMDYIQKRDERLLRKKRYSKVSKGQF", "soluble on expression in E. coli": "not soluble"},
      {"sequence": "GKDWNWNVGGVLGYNKNKVTYVNVKAPAIFLQFDYPAAYPRVGVPYNAIYGYLWAGLDSKGQPQVYDSEGNIHVSSSPQKVEDAVYLGTSVPVYSGAINTNLRYKNWELAAQLLFEGGHKMRNTNIAYPGLGVTSKDVSKRWRQPGDEAYTDVPRYVPSESKDYNSYSSDLYSKASIHVLDADNWRLKNLSVTYHVPASVCQKFYVKNARIMLGMENVFTLAKSRDVKWMLGGYSKPNYLCNVNLNF", "soluble on expression in E. coli": "not soluble"},
      {"sequence": "MIVSFMENYSDALNDIFQSLADPTRRAVILRLGGGEASIGTLAEPFAMALPSFMKHIRQLEEAGLIVTRKQGRVRFCSLEKQRFSMLDGWLSQQRAVWEGRTDRLEQFVMAQQDRMSSKGENDQ", "soluble on expression in E. coli": "not soluble"},
      {"sequence": "MGSDKIHHHHHHMKDRSFDTLQEAVDVLSLTLNGPVTLEDREHRLLAYSKHSHETDSARIETIMNRQVPDRVIEGLWSSGLLQKLNQTDEPIRIPGIPAVGLGNRVAISIRQQQFVLGYIWVLELEEPLTDEQLNDLKDMVSLIRAMLIKQQETRFRRRLEREERWRHLYQGTETVAEVKRRFQAEGEPLPERGVVVQFFCERTIKEEHEQALSFISEKVKSRILVTFAMLIDGKWTVYLTDSLKKPLDEQVVKHFIDQWIRSWNDQFSYANVLAGVGQHCSQLTDVSESFHQAEKVIELKGEFAYELDKVYYFHELGFYRIIVDSVPILESETVQTLAAYDQKQGTELLQTLEAFLDVDGRNQAAAALLHVHPNTLNYRMKRIYELTGLDVKNMKDKVSLYLELKLRRWRNRVE", "soluble on expression in E. coli": "not soluble"},
      {"sequence": "VKSNAQIDSVKCFSTMNDEEIVEDSRAGDDRALEYLINKYKGFVRAKARTYFLIGADREDIIQEGMIGLYKAIRDFRKDKLSSFRAFAELCITRQIITAIKTATRQKHIPLNSYVSLNKPIFDEESDRTLMDIISEESINDPEEMVINREEFSGIEAKMGEILSSLECEVLTSYLQGKSYQEIAVELDRHVKSIDNALQRVKRKLEKYLEESRI", "soluble on expression in E. coli": "soluble"},
      {"sequence": "MGSDKIHHHHHHAQPTDPSTTDSELTMLVGTYTSGNSKGIYTFRFNEETGESLPLSDAEVANPSYLIPSADGKFVYSVNEFSKDQAAVSAFAFDKEKGTLHLLNTQKTMGADPCYLTTNGKNIVTANYSGGSITVFPIGQDGALLPASDVIEFKGSGPDKERQTMPHLHCVRITPDGKYLLADDLGTDQIHKFNINPNANADNKEKFLTKGTPEAFKVAPGSGPRHLIFNSDGKFAYLINEIGGTVIAFRYADGMLDEIQTVAADTVNAQGSGDIHLSPDGKYLYASNRLKADGVAIFKVDETNGTLTKVGYQLTGIHPRNFIITPNGKYLLVACRDTNVIQIFERDQATGLLTDIKKDIKVDKPVCLKFVD", "soluble on expression in E. coli": "not soluble"},
      {"sequence": "MGSDKIHHHHHHMASSSEGVSVLEIECKVVTPMFSRGAAEPKWENGNRVYPFELRPQSIKGVLRFWFRAIAPTVIDIYSLEGLENLSKKEKERWEKEKYKGLKYLEGLIFGSQERKSSFSLEVKVEGESQALGKYMNNRFSFTDDRLKDTKYALYGLYDKSGIYEYLQEGKNFIIILQTANDSIKGIILSLLKLVSTFSGFGAKTRKGFGEFEIVDPKLTRNDYNLVISECQEHIREFVNHHNSSSKVKIKLGRTNFNGIPDFPCFCDYKIFEITKFSGNSPLEVLREVFKVGRNFKGWYPSLKQKMRFSEGDCVKDLVEALEGLLKGRKTEKKIEIPTAVVGLPIQYQNLGRGEIRRLKVIVSSSLRGLGIDDIDGRKASPLFLSVHEGERGKWKLVVLLMRSRVTNDGELITEVKGGKTPSSGIKTIVKEEKDYKNLLEWIKKLGGKEIQGG", "soluble on expression in E. coli": "not soluble"},
      {"sequence": "GANTTETPVKDVELDGRWDDPIRSAATNCPITVFTDGYLLTLKNASPDRDMTIRITDMAKGGVVYENDIPEVQSAYITISIANFPAEEYKLEITGTPSGHLTGYFTKE", "soluble on expression in E. coli": "soluble"},
      {"sequence": "GAMAMSGGLPELGSKISLISKADIRYEGRLYTVDPQECTIALSSVRSFGTEDRDTQFQIAPQSQIYDYILFRGSDIKDIRVVNNHTLP", "soluble on expression in E. coli": "soluble"},
      {"sequence": "MRGSHHHHHHGSGSMHQRQTLYQLMDGLNTFYQQSLQQPVATSARQYLEKRGLSHEVIARFAIGFAPPGWDNVLKRFGGNPENRQSLIDAGMLVTNDQGRSYDRFRERVMFPIRDKRGRVIGFGGRVLGNDTPKYLNSPETDIFHKGRQLYGLYEAQQDNAEPNRLLVVEGYMDVVALAQYGINYAVASLGTSTTADHIQLLFRATNNVICCYDGDRAGRDAAWRALETALPYMTDGRQLRFMFLPDGEDPDTLVRKEGKEAFEARMEQAMPLSAFLFNSLMPQVDLSTPDGRARLSTLALPLISQVPGETLRIYLRQELGNKLGILDDSQLERLMPK", "soluble on expression in E. coli": "soluble"},
      {"sequence": "MEKLGLEHVCGDLNTEVEHGFTCDLLSEVLGKAQPSTLWITVQSHVNIIAVATVVGIKGIVLCDGHEYEKDTVKKAEENGVVLLKSQENSFIVSGKVYELGLRLEHHHHHH", "soluble on expression in E. coli": "not soluble"},
      {"sequence": "MNSKKVLFIIFICALTVTGCDTQEQTTIDSGLTLIRATQTLDSLYANYSVSGTCLLRENYPSNVGNYTATYLASEEQKEIPNQYSYLWPYSGTFSAVNALCAATGDESYKTLLDNKVLRGLEKYLDISRSPAGYASYINTASQSDRFYDDNIWLGIDFTDAYLNTKEEKYLKKAQLIWKFIESGADDKLGGGIYWCEQKKVSKNTCSNAPASVFALKMFKAIRDSSYLIKGQELYEWTKKRLQDSTDYLYFDNISLDGKIDKSKYAYNSGQMMQAATLLYQLTGRSHFLKDAQNIAKACYNYFFINFIPEEGEPFKLLKKGDVWFTAVMLRGFIELYQTDHNKTYINSFNQNMDYAWEHVRDEKGLFDIDFSGRTHDDRKWLLTQAAMVEMYARLAVTKLEHHHHHH", "soluble on expression in E. coli": "not soluble"},
      {"sequence": "MSPKARWQFWIDRGGTFTDIVARSPDGKLITHKLLSEDPAHYEDAAMHGIRQILGLSENEPFPSEDVEAIKMGTTVGTNALLERKGERIVLVITKGFGDALRIGYQNRPDIFSQKIELPDQLYERVIEVSGRYSADGEEIVPLELESAKKELEEAYKAGIRSAAVILMHSYRYPEHELMLGRLATEIG", "soluble on expression in E. coli": "not soluble"}
    ]}
  ]
}
